Consider 10 molecules from patent publication US20230095558A1 (SPARX BIOTECH JIANGSU, published 2023).

No end group written: not given here.

In this assay the target is T1, TIM3 protein (cat #CHI-MF-210T3-0050, Chimerigen).
T1 construct: Bought recombinant protein used in SPR; also called TLM3 protein
The experiment in a line: SPR (OpenSPR), TIM3 protein immobilised on chip, peptide in flow. The procedure: SPR assay: Affinity identification between the TIM3-targeting binding peptides and TIM3 was performed by immobilizing TIM3 protein (50 μg/mL) on the surface of a nanogold sensor chip upon activation of EDC/NHS. […] The competitive binding ability of the TIM3-targeting binding peptides to the ligand was identified by immobilizing the Galectin-9 protein (25 μg/mL) on a sensor chip at a detection concentration of 100 μg/mL for the TIM3-targeting binding peptides, and at a concentration of the mixed sample of 100 μg/mL TIM3-targeting binding peptides and 10 μg/mL TIM3 protein. The detection sample was loaded at a flow rate of 20 μL/min for about 7 min according to the instrument instructions. The KD, ka and kd values were calculated and analyzed by Trace Drawer Evaluation (version 2.0) software.

B1: P29-12-peptide (targeting TIM3) (peptide)
peptide: ADFRVMADMSMY
notes: Synthetic 12-mer from phage display screening
Regarding B1, binding was characterised by a dissociation constant (Kd) of 200 µM and the koff stood at 0.00747 s⁻¹.

B2: K2-20-peptide (targeting TIM3) (peptide)
peptide: FTYAHPVSHRWESSVHVDQW
notes: Synthetic 20-mer from phage display screening
On to B2, for which the dissociation constant Kd was 227 µM and the koff is 0.0103 s⁻¹.

B3: K10-20-peptide (targeting TIM3) (peptide)
peptide: SPFYYSGHQWVPHPRQAASY
notes: as for B2
As for B3, the equilibrium dissociation constant (Kd) came to 26.1 µM and the koff was 0.023 s⁻¹.

B4: P1303-12-peptide (targeting TIM3) (peptide)
peptide: ALWPSSSMSSTI
notes: as for B1
In the case of B4, binding was characterised by a dissociation constant (Kd) of 26.3 µM, the off-rate (koff) stood at 0.00308 s⁻¹ and the kon was 117 M⁻¹ s⁻¹.

B5: P24-12-peptide (targeting TIM3) (peptide)
peptide: GSWNTFRAQPTI
notes: as for B1
Take B5: the equilibrium dissociation constant (Kd) was found to be 0.095 µM and the off-rate (koff) was found to be 1.69e-05 s⁻¹.

B6: P1301-12-peptide (targeting TIM3) (peptide)
peptide: HDAFPRPHLFRN
modifications: not fully specified
Take B6: the affinity, expressed as Kd, was 80.1 µM and the off-rate (koff) came out at 0.00428 s⁻¹.

B7: K5-20-peptide (targeting TIM3) (peptide)
peptide: WQQNNPHLWDVFLGVPRTTE
notes: as for B2
B7 had a Kd of 18 µM and a koff of 0.016 s⁻¹.

B8: P20-12-peptide (targeting TIM3) (peptide)
peptide: LTPHKHHKHLHA
notes: as for B1
As for B8, binding was characterised by a dissociation constant (Kd) of 24.3 µM and the koff was 0.00625 s⁻¹.

B9: P1307-12-peptide (targeting TIM3) (peptide)
peptide: SHDTRSPFTWGR
notes: as for B1
For B9, the affinity, expressed as Kd, was 117 µM and the koff was 0.00789 s⁻¹.

B10: K3-20-peptide (targeting TIM3) (peptide)
peptide: SQEVFAWTFSPRWTTAPKAL
notes: as for B2
Turning to B10, binding was put at a Kd of 20.1 µM and the koff amounted to 0.0132 s⁻¹.

For orientation: Kd means the free concentration of one partner at which half of the binding sites on the other are occupied at equilibrium, for simple one-to-one binding. High values mean weaker binding, low ones tighter binding. In general, koff refers to the rate constant with which the complex falls apart. Broadly, the kon is the second-order rate constant of association. High values mean faster complex formation, low ones slower complex formation.
